Eleven molecules from patent US20140005126A1 (ISOGENICA, published 2014) can be followed below.

Assay [1] deals with T1, human serum albumin (human, UniProt P02768 25-609).
T1 construct: also called HSA
Kind of assay: phage ELISA: phage-displayed clone on HSA-coated control wells (right bar of each pair), read at 450 nm. On the technique in general: ELISA stands for enzyme-linked immunosorbent assay.

A further assay concerns the target T2, Human β-NGF (human, UniProt P01138 123-240, limits assumed).
T2 construct: R&D Systems; It was biotinylated via carboxyl groups for the selection
Nature of the assay: phage ELISA: phage-displayed clone on NGF-coated wells (left bar of each pair), read at 450 nm; control: HSA-coated wells (right bar).

Assay [2] addresses T1, human serum albumin. Nature of the assay: phage ELISA for specificity: 50 ng of each protein coated per well, absorbance at 450 nm; six bars per clone in the order of the legend: VEGFR2, human IgG, monoclonal antibody, enzyme, HSA, blocked well. As to the method: (§1) ELISAs were then performed to screen for modified WW domain peptides that bind to the target ligand. NUNC Maxisorp plates were coated with 50 ng per well of VEGFR2 in PBS overnight at 4° C. After blocking the plates with PBS, 2% BSA, 0.1% Tween-20, phage displaying the selected clones were added, diluted in blocking buffer, and incubated for 1 hour. WW domain binders were detected using horseradish peroxidase-conjugated anti-M13 antibody (GE) and SureBlue TMB peroxidase substrate (Insight Biotechnology, Middlesex, UK); and the ELISA signal was read at 450 nm.
The specificity of clones selected for binding to VEGFR2 was assayed in an ELISA against a selection of non-target peptides/proteins, as described above. 50 ng of each of the different target and non-target proteins was coated per well of and ELISA plate and each of the modified WW domain peptides was added.

The target in assay [3] is T3, VEGFR2-Fc fusion.
T3 construct: Bought from R&D Systems
Kind of assay: biolayer interferometry (Octet Red), biotinylated WW-B1 on streptavidin sensors, VEGFR2-Fc 1 to 100 nM, steady state analysis. As to the method: Real time binding assays between chemically synthesised clone WW-B1 and VEGFR2-Fc fusion were performed using biolayer interferometry with an Octet Red system (Fortebio, Menlo Park, Calif.). Biotinylated WW-B1 was immobilised to streptavidin biosensors (Fortebio) at a concentration of 50 ng/μl in PBS. Association curves were then detected by incubating WW-B1-coated sensors with different concentrations of VEGFR2 (1 to 100 nM in PBS), and dissociations were detected by incubating the sensors in PBS. The dissociation constant for WW-B1 binding to VEGFR2 was determined by steady state analysis to be 44 nM±1.1 nM (FIG. 5).
In general terms: BLI is a label-free optical method that tracks binding on a fibre tip over time.

For assay [4], the target named is T3, VEGFR2-Fc fusion. Nature of the assay: biolayer interferometry (Octet Red), peptide on streptavidin sensors, steady state analysis; cyclised WW-B1, steady state analysis. The protocol: Real-time binding assays between the peptides and VEGFR2-Fc fusion were performed using biolayer interferometry with an Octet Red system (Fortebio, Menlo Park, Calif.). WW peptides were immobilised on streptavidin biosensors (Fortebio) at a concentration of 2 μg/ml in kinetic buffer. Association curves were then detected by incubating the immobilised peptide with […] (1 to 100 nM in kinetic buffer), and dissociations were detected by incubating the sensors in kinetic buffer. All of the peptides from the affinity maturation, bind to VEGFR2 with a similar affinity as WW-B1.
The dissociation constant for cyclised WW-B1 binding to VEGFR2 was determined by steady state analysis to be 31 nM±4.8 nM (FIG. 12).

In assay [5] the target is T3, VEGFR2-Fc fusion. Nature of the assay: phage ELISA: phage-displayed clone on wells coated with 50 ng VEGFR2, anti-M13-HRP, absorbance at 450 nm; control: uncoated blocked wells (light bars). As to the method:
as §1

The target in assay [6] is T3, VEGFR2-Fc fusion. Kind of assay: competition ELISA: inhibition of VEGFR2 binding to coated VEGF by WW-B1-MBP. The protocol:
A competition assay was carried out in which binding of VEGFR2 to VEGF-A (VEGF) was competed by the presence of varying amounts of the selected modified WW domain peptide.
50 ng human VEGF (R&D Systems, Abingdon, UK) 1 μg/ml in PBS was coated per well onto a Maxisorp plate at 37° C. for 140 minutes. The wells were then blocked with 100 μl PBS containing 2% BSA for 55 minutes at room temperature. 1.25 ng VEGFR2 was preincubated with WW-B1 fused to maltose binding protein (MBP) in 50 μl PBS for 45 minutes at room temperature. The activity of the WW-B1 peptide was tested at serial dilutions from 10 μM to 156.25 nM. 50 μl 4% BSA in PBS was added to the preincubated VEGFR2 with WW-B1-MBP and the whole mixture was then added to the VEGF coated ELISA plate and incubated at room temperature for 55 minutes. The plate was then washed with 3 washes in PBS-Tween and 2 washes in PBS. Next 50 μl/well penta His-HRP (QIAgen, diluted 1:500 in 2% BSA in PBS) was added and the mixture incubated at room temperature for 55 minutes, before washing as before. ELISA signals were detected using SureBlue TMB peroxidase substrate (Insight biotechnology, Middlesex, UK) at 450 nm.
As a control, the above process was repeated with wild-type Pin1 WW domain peptide replacing WW-B1. The results are illustrated in FIG. 6.

Bridges are numbered along the chain shown (N, C = ends). Where no end group is shown, it is not given here. The star is where a group is joined. Biotin = O=C1N[C@H]2[C@H](CS[C@H]2CCCCC(=O)*)N1

T1 sequence (P02768 25-609 limits assumed): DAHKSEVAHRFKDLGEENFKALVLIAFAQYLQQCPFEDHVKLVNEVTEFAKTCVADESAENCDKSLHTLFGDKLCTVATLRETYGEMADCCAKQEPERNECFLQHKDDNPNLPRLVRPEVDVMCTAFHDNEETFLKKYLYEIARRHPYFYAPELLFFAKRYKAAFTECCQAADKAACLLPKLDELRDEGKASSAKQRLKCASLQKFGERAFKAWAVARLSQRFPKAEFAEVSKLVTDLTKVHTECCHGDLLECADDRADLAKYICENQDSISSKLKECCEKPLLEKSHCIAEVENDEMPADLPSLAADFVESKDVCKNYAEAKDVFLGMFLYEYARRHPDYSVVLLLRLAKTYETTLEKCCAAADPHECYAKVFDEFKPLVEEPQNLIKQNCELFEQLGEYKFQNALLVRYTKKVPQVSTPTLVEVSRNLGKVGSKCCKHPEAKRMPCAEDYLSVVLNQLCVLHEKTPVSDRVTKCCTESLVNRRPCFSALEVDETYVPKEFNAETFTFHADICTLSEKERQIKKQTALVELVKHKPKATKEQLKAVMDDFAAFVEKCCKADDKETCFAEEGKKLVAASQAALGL
T2 sequence (P01138 123-240 limits assumed): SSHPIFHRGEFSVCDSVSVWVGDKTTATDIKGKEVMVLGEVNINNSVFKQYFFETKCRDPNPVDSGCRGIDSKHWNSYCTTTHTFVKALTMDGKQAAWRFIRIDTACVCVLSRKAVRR

In the case of MADEEKLPPGWTVWSPNGRVYYWNSITVARQWERPSG (designed binder, not shown: large carriers, also: fused to gpIII (M13 phage display), linker not given here) [clone NP-H8, phage-displayed modified Pin1 WW domain peptide], the figures for the binding result with human serum albumin [1] and with Human β-NGF were “no binding” and “binds”, respectively.

As to MADEEKLPPGWCKFWSTAGRVIYINRITGAKQWERPSG (designed binder, not shown: large carriers, also: fused to gpIII (M13 phage display), linker not given here) [clone A1, phage-displayed modified Pin1 WW domain peptide], the binding result in the assay with human serum albumin [2] is “no binding”.

B1: WW-B1 VEGFR2 WW domain, chemically synthesised, biotinylated (linear) (designed binder)
peptide: Biotin-MADEEKLPPGWYKMWSSPGRVLYVNDITHAHRWERPSG
modifications: not fully specified
notes: Modified Pin1 WW domain; also called linear WW-B1; clone WW-B1
One may read the Kd as a measure of binding affinity in units of concentration. A higher Kd goes with weaker binding. In the assay with VEGFR2-Fc fusion [3], B1 gave a Kd of 44 nM.

B2: cyclic WW-B1 peptide (Glu38 variant), cyclised through amino acids at positions 6 and 38 (designed binder)
peptide: Biotin-DEEKLPPGWYKMWSSPGRVLYVNDITHAHRWERPEG-NH2
modifications: lactam 4-35
SMILES: CC[C@H](C)[C@@H]1NC(=O)[C@H](CC(=O)O)NC(=O)[C@H](CC(N)=O)NC(=O)[C@H](C(C)C)NC(=O)[C@H](Cc2ccc(O)cc2)NC(=O)[C@H](CC(C)C)NC(=O)[C@H](C(C)C)NC(=O)[C@H](CCCNC(=N)N)NC(=O)CNC(=O)[C@@H]2CCCN2C(=O)[C@H](CO)NC(=O)[C@H](CO)NC(=O)[C@H](Cc2c[nH]c3ccccc23)NC(=O)[C@H](CCSC)NC(=O)[C@H](CCCCN)NC(=O)[C@H](Cc2ccc(O)cc2)NC(=O)[C@H](Cc2c[nH]c3ccccc23)NC(=O)CNC(=O)[C@@H]2CCCN2C(=O)[C@@H]2CCCN2C(=O)[C@H](CC(C)C)NC(=O)[C@@H](NC(=O)[C@H](CCC(=O)O)NC(=O)[C@H](CCC(=O)O)NC(=O)[C@H](CC(=O)O)NC(=O)CCCC[C@@H]2SC[C@@H]3NC(=O)N[C@@H]32)CCCCNC(=O)CC[C@@H](C(=O)NCC(N)=O)NC(=O)[C@@H]2CCCN2C(=O)[C@H](CCCNC(=N)N)NC(=O)[C@H](CCC(=O)O)NC(=O)[C@H](Cc2c[nH]c3ccccc23)NC(=O)[C@H](CCCNC(=N)N)NC(=O)[C@H](Cc2c[nH]cn2)NC(=O)[C@H](C)NC(=O)[C@H](Cc2c[nH]cn2)NC(=O)[C@H]([C@@H](C)O)NC1=O
notes: also called cyclised WW-B1
In turn, B2 displayed a Kd with VEGFR2-Fc fusion [4] of 31 nM. For MADEEKLPPGWAVWSPDGRLYYWNSVIVSTRWGRPSC (designed binder, not shown: large carriers, also: fused to gpIII (M13 phage display), linker not given here) [clone NP-A12, phage-displayed modified Pin1 WW domain peptide], the binding result with human serum albumin [1] was “no binding”; in the assay with Human β-NGF, “binds”. In the case of MADEEKLPPGWGKPWSARGRVTYINLITVAEQWERPS (designed binder) [NP-E3], the binding result with human serum albumin [1] was “no binding”.

Turning to MADEEKLPPGWGKGWSPRGRVWYTNRTTVAAQWERPSG (designed binder, not shown: large carriers, also: fused to gpIII (M13 phage display), linker not given here) [clone H4, phage-displayed modified Pin1 WW domain peptide], the binding result is reported as “binds” in the assay with VEGFR2-Fc fusion [5] and “no binding” in the assay with human serum albumin [2]. Take MADEEKLPPGWYKMWSSPGRVLYVNDITHAHRWERPSG (designed binder, not shown: large carriers, also: fused to gpIII (M13 phage display), linker not given here, also called WW-B1) [clones B1 and H1, phage-displayed modified Pin1 WW domain peptide]: the binding result in the assay with human serum albumin [2] is “no binding”. A word on the EC50: it is the concentration at which the effect is half-maximal. Read a high EC50 as a need for much substance. Molecule MADEEKLPPGWYKMWSSPGRVLYVNDITHAHRWERPSG (designed binder, not shown: large carriers, also: fused to maltose binding protein (MBP), order and linker not given here, also called WW-B1-MBP) [WW-B1 fused to maltose binding protein (MBP)] came in with an EC50 with VEGFR2-Fc fusion [6] of 76 nM. Consider MADEEKLPPGWYKMWSSPGRVLYVNDITHAHQWERPSG (designed binder, not shown: large carriers, also: fused to gpIII (M13 phage display), linker not given here) [clones E1, E3, H3, C4, E4, G4 and H6, phage-displayed modified Pin1 WW domain peptide], for which, in the assay with human serum albumin [2], the binding result is given as “no binding”. In the case of MAVEEKLPPGWYKMWSSPGRVLYVNDITHAHQWERPSG (designed binder, not shown: large carriers, also: fused to gpIII (M13 phage display), linker not given here) [clone B4, phage-displayed modified Pin1 WW domain peptide], the binding result with VEGFR2-Fc fusion [5] is on record as “binds”.
